The nanobody polyreactivity screen of Harvey et al. (2022)

Assay: yeast display, Sf9 membrane polyspecificity reagent, FACS + sequencing; frameworks hold sequencing errors
How it was run: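 Synthetic nanobody libraries on Saccharomyces cerevisiae BJ5465 were galactose-induced for 36–48 hours, stained 1 hour at 4 °C with 10% biotinylated, detergent-solubilized Sf9 membrane reagent and enriched on streptavidin microbeads. FACS then separated cells into low and high (top ~1%) gates by anti-HA (expression) and streptavidin (reagent binding) fluorescence. Genes were colony-PCR amplified, MiSeq 2 × 250 sequenced and CDR-length filtered. A clone's polyreactivity label is that of its gate of origin.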

| Sequence | polyreactivity (PSR sort gate) |
| --- | --- |
| QVQLVESGGGLVQAGGSLRLSCAASGRTFFHYAMGGSRQAPGKERELVAAMTSRGDSTYYADSVKGRFTISRDNAKNTVYLQMNSLKPAETAVYYCAVYSHRRNMNYWGQGTQVTVSS | high polyreactivity |
| QVQLVESGGGLVQAGGSLRLSCAASGRTFFINAMGWYRQAPGKERELVAAMRVGAGSTYYADSVKGRFTISRDNAKNTVYLQMNSLKPEDTAVYYCSKRTATSTRKYDYWGQGTQVTVSS | high polyreactivity |
| QVQLVESGGGLVQAGGSLRLSCAASGRTFFINTMGWYRQAPGKEREFVAAITWSAGRTYYADSVKGRFTISRDNAKNTVYLQMNSLKPEDTAVYYCAAALHGHTFPFYYWGQGTQVTVSS | low polyreactivity |
| QVQLVESGGGLVQAGGSLRLSCAASGRTFFIYAMGWYRQAPGKERELVAAIRWRGGSTYYADSVKGRFTISRDNAKNTVYLLMNSLKPEDTAVYYCAASTRQARYEDYYWGQGTQVTVSS | high polyreactivity |
| QVQLVESGGGLVQAGGSLRLSCAASGRTFFKYAMGWYRQAPGKERELVATITSSGGITYADSVKGRFTISRDNAKNTVYLQMNSLKPEDTAVYYCNARVWVTHYSELNYWGQGTQLTVSS | low polyreactivity |
| QVQLVESGGGLVQAGGSLRLSCAASGRTFFKYVKGWYRQAPGKERELVAAISSGGSTNYADSVKGRFTISRDNAKNTVYLQMNSVKPEDTAVYSCAASRYRGYYYWGQGTQVTVSS | high polyreactivity |
| QVQLVESGGGLVQAGGSLRLSCAASGRTFFLYTMGWYRQAPGKEREFVAAINYSGGRTYYADSVKGRVTISRDHAKNTVYLQMNSLKPEDTAVDYCNAVYSFLYPDHMGYWGQGTQVTVSS | high polyreactivity |
| QVQLVESGGGLVQAGGSLRLSCAASGRTFFPYAMGWYRPAPGKERELVAAITRSGSTYYADSVKGRFTISRDNAKNTVYLQMNSLKPEDTAVYYCAADYSPWRSDFDYWGQGTQVTVSS | low polyreactivity |
| QVQLVESGGGLVQAGGSLRLSCAASGRTFFPYAMGWYRQEPGKERELVADIRRGGSTYYADSVKGRFTISRDNAKNNVYLQMYSLKPEDTAVYYCNVDFWWNRLYELDYWGQGTQVTVSS | high polyreactivity |
| QVQLVESGGGLVQAGGSLRLSCAASGRTFFRYAMGWYRQAPGKERELVAAISRSGGGTYYADSVKGRFTISRDNAKNTVYLQMNSLKPEDTAVYYCNRDDYSRNHVYEFDYWGQGTQVTVSS | low polyreactivity |
| QVQLVESGGGLVQAGGSLRLSCAASGRTFFRYVMGWYRQAPGKERELVAAISRSGGSTYYADSVKGRFTISRDNAKITVYLQMNSLKTEDTAVYYCNSVARSTVVPTEFDYWGQGTQVTVSS | high polyreactivity |
| QVQLVESGGGLVQAGGSLRLSCAASGRTFFSYAMGWYRQAPGKERELVAAISRRGSSTYYADSVKGRFTISRDNAKNTVYLQMNSLKPEDTAVYYCAADVVRGSRYNRYGYWGQGTQVTVSS | high polyreactivity |
| QVQLVESGGGLVQAGGSLRLSCAASGRTFFSYAMGWYRQAPGKERELVAAISWSGGTTYYADSVKGRFTISRDNAKNTVYLQMNSLKPEDTAVYYCAAYVYQEGYRYYYWGQGTQVTVSS | high polyreactivity |
| QVQLVESGGGLVQAGGSLRLSCAASGRTFFTYAMGWYRQAPGKERELVASITRSGVSTYYADSVKGRFTISRDNAKNTVYFQMNSLKPEDTAVYYCNTRYPYYWPIYGYWGQGTQVTVSS | high polyreactivity |
| QVQLVESGGGLVQAGGSLRLSCAASGRTFFVNAMGWYRQAPGKERELVATITFSGDSTYYADSVKGRFSISRDNAKNTVYLQMNSLKPEDTAVYYCAAYQGQKGYDYWGQGTQVTVSS | high polyreactivity |
| QVQLVESGGGLVQAGGSLRLSCAASGRTFFWNDMGWYRPAPGKERELVAAITWSGGSTYYADSVKGRFTISRDNAKNTVYLQMNSLKPEDTAVYYCDAVVSDYVWRYEYWGQGTQVTVSS | low polyreactivity |
| QVQLVESGGGLVQAGGSLRLSCAASGRTFFYYAMGWYRQAPGKERELVAAISTNGGSTYYADSVKGRFTISRDNAKNTVYLQMNSLKPEDTAVYYCNTYATPHRSGGGLGGHYYWGQGTQVTVSS | low polyreactivity |
| QVQLVESGGGLVQAGGSLRLSCAASGRTFFYYSMGWYIQAPGKEREFVSGISKSGSSTYYADSVKGRFTISRDNPKNTVYLQLISLKPEDTADSYCAAVSKRGAGGRRTEYWGQGTQVTVSA | high polyreactivity |
| QVQLVESGGGLVQAGGSLRLSCAASGRTFFYYTMGWYRQAPGKERELVAAITGSGTRTYYADSVKGRFTISRDNAKNTVYYQMNSLKPEDTAVYYCAAGYSDFSGQQVYYWGQGTQVTVSS | high polyreactivity |
| QVQLVESGGGLVQAGGSLRLSCAASGRTFGAYAMGWYRQAPGTERELVAAISSSGGSTYYADSVKGRFTISRDNAKNTVYLQMNSLKPEDTAVYYCAKGWHRGVGFGYWGQGTQVTVSS | high polyreactivity |
| QVQLVESGGGLVQAGGSLRLSCAASGRTFGDYAMGWYRQAPGKERELVAAISGTGGSTYYADSVKGRFTISRDNAKNTVYLQMNSLKPEDTAVYYCAARLKYIRFYYWGQGTQVTVSS | high polyreactivity |
| QVQLVESGGGLVQAGGSLRLSCAASGRTFGDYAMGWYRQAPGKERELVAAISSSGGRTYYADSVKGRFTISRDNAKNTVYLQMNSLKPEDTAVYYCATDYLYVYGFEYYYWGQGTQVTVSS | high polyreactivity |

| Sequence | polyreactivity (PSR sort gate) |
| --- | --- |
| QVQLVESGGGLVQAGGSLRLSCAASGRTFGFNVMGWYRQAPGKERELVAAISRSGGSTYYADSVKGRFTISRDNAKNTVYLQMNRLKPEDTAVYYCNKRYVHRYGYWGPGTQVTVSS | low polyreactivity |
| QVQLVESGGGLVQAGGSLRLSCAASGRTFGFNVMGWYRQAPGKERELVAAISWSGGSTYYADSVKGRFTISRDNAKNTVYLQLNSLKPADTAVYYCNKRYVHRYGYWGQGTQVTVSS | low polyreactivity |
| QVQLVESGGGLVQAGGSLRLSCAASGRTFGFYDMGWYRQAPGKERELVAAIRGSIGYTYYADSVKGRITISRDNAKNTVYLQMTSLKPEDTAVYYCAKAIRYPAAKFYWGQGSQVTVSS | high polyreactivity |
| QVQLVESGGGLVQAGGSLRLSCAASGRTFGGNAMGWNRHAPGKERELVAGINISGGSTNYADSVKGRYTISRDNAKNTVYLQMNSLKPEDSAVYYCNADTAVYAWDDDYWGQGTQVTVSS | low polyreactivity |
| QVQLVESGGGLVQAGGSLRLSCAASGRTFGGNAMGWYRQAPGKERELVAAISRSGGRTYYADSVKGRFTISRDNAKNTVYLQMNSLKPEDTAVYYCAAKYQYTQYDYWGQGTQVTVSS | high polyreactivity |
| QVQLVESGGGLVQAGGSLRLSCAASGRTFGGNSMGWYRQAPAKERELVAAISRGGSTKYADSVKGRFTISRDNAKNTVYLQMNSLKPEDTAVYYCAASPKFHYDYWGQGTQVTVSS | low polyreactivity |
| QVQLVESGGGLVQAGGSLRLSCAASGRTFGGYAMGWYRQAPGKERELVAAIRSRGGRTYYADSVKGRFTISRDNAKNTVYLQMNSLKPEDTAVYYCATYGNKWGEDYWGQGTQVTVSS | high polyreactivity |
| QVQLVESGGGLVQAGGSLRLSCAASGRTFGGYAMGWYRQAPGKETQLVATITSGGSTYYADSVKGRFTISRDNAKNTVYLQMTSLKPEDTAVYYCAADTYFETSTRAIPSNDYWGQGTQVTVSS | low polyreactivity |
| QVQLVESGGGLVQAGGSLRLSCAASGRTFGGYDMGWYRQAPGKERELVAAISSGGRTYYADSVKGRFTISRDNAKNSVYLQMNSLKPEDTAVYYCAAKYRKWPIDYWGQGTQVTVSS | high polyreactivity |
| QVQLVESGGGLVQAGGSLRLSCAASGRTFGGYTMGWYRQATGKEMELVAAITGSGSNTYYADSVKGRFTISRDNAKNTVYLQMNSLKPEDTAVYYCAAPYSYRTWYPYGYWGQGTQVTVSS | high polyreactivity |
| QVQLVESGGGLVQAGGSLRLSCAASGRTFGGYVMGWYRQAPGKERELVATITYSGGSTHYADSVKGRFTISRDNAKNTVYLQINSLKPEDTAVYYCARRRSYRYPSEYNYWGQGTQVTVSS | high polyreactivity |
| QVQLVESGGGLVQAGGSLRLSCAASGRTFGINAMGWYRQAPGKDRELVAAIRTGGSTYYADSVKGRFTISRDNAMNTVYLQMNSLKPEDTAVYYCAAKAYRRYTIPPYGYWGQGTQVTVSS | high polyreactivity |
| QVQLVESGGGLVQAGGSLRLSCAASGRTFGINAMGWYRQAPGKERELVAVISFADGGTYYADSVKGRFTISRDNAKNTVYLQMNSLKPEDTAVYYCATDYQSTSVWGGHFVINPYDYWGLGTQVTVSS | low polyreactivity |
| QVQLVESGGGLVQAGGSLRLSCAASGRTFGINAMGWYRQAPGKETELVAVISFGDGGTYYADSVKGRFTISRDNAKNTVYLQMNSLTPEDTAVYYCATDYQSTSVWGGHFVINPYDYWGQGTQVTVSS | low polyreactivity |
| QVQLVESGGGLVQAGGSLRLSCAASGRTFGIYAMGWYRQAPGKERELVAAISRGGNTYADSVKGRFTISRDNAKNSVYLQMNSLKPEDTAVYYCAADRRYRPGDYWGQGTQVTVSS | high polyreactivity |
| QVQLVESGGGLVQAGGSLRLSCAASGRTFGIYAMGWYRQAPGKERELVASISWSGGRTYYADSVKGRFTISRDNAKNTVYLQMNSLKPEDTAVYYCAAYGVYYPRSWQYFDWYGYWGQGTQVTVSS | high polyreactivity |
| QVQLVESGGGLVQAGGSLRLSCAASGRTFGKNAMGWYRQAPGKERELVAAISGSGGSTYYADSVKGRFTISRDNAKNTVSLQMNSLKPEDTADYYCAKSYYGKYYPSDYWGQGTQVTVSS | low polyreactivity |
| QVQLVESGGGLVQAGGSLRLSCAASGRTFGKYAMGWYRQAPGKERELVAAITTRVVITYYADSVKGRFTISRDTAKNTVYLQMNSLKPEDTAVYYCAADPEKIYRPFNHYYYWGQGTQVTVSS | low polyreactivity |
| QVQLVESGGGLVQAGGSLRLSCAASGRTFGKYAMGWYRQAPRKEREFFAAISRSGGNTYYADTVKGRFTISRDNAKNTVYLQMTSLIPEDTAVYYCARGLSTYVLSHGLEYRTYFYWGQGTQVTVSS | high polyreactivity |
| QVQLVESGGGLVQAGGSLRLSCAASGRTFGKYAMGWYSQAPGKERELVAAISSGGTTYYADSVKGRFTISRDNAKNTVYLQMNSVIPEDTAVYYCAADPRYPYNYWGQGTQVTVSS | low polyreactivity |
| QVQLVESGGGLVQAGGSLRLSCAASGRTFGLNAMGWYRQAPGKERELVAAITYSGGSTYYADSVKGRFTISRDNAKNTVYLQMNSLKPEDTAVYYCAKEVQTYWYHYYYWGQGTQVTVSS | high polyreactivity |
